This is an account of results in patent US20190211097A1.

The target in this test is human CD32a (FcgammaRIIa) on washed human platelets (human) (UniProt P12318). Description: cell-based or functional assay.
human CD32a (FcgammaRIIa) on washed human platelets (human), sequence (P12318 34-317 limits assumed): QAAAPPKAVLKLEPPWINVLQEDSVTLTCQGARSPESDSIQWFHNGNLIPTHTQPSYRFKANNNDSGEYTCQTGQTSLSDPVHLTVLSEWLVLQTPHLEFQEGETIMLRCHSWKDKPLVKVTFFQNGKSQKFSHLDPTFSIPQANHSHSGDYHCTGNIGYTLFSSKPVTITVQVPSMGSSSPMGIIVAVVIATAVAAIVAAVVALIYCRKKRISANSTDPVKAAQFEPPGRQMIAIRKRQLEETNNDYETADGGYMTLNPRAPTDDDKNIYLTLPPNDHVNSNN

M90 anti-CD40L mAb + M91 anti-CD40L mAb + CD40L immune complex (a polyclonal immune complex), sequence (P29965 113-261, one chain of several): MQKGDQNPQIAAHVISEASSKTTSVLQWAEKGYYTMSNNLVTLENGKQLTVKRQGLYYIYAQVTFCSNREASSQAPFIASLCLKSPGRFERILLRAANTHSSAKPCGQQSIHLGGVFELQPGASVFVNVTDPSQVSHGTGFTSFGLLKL
M90 anti-CD40L mAb + CD40L immune complex, sequence (P29965 113-261, one chain of several): as above

Consider “M90 anti-CD40L mAb + CD40L immune complex (from UniProt P29965 113-261)”, for which the washed human platelet aggregation induced by the IC (IC concentration) is 250 nM.
The same measure, in the same setting: for “M90 anti-CD40L mAb + M91 anti-CD40L mAb + CD40L immune complex (a polyclonal immune complex) (from UniProt P29965 113-261)” the value was 1000 nM.
“deglycosylated native mouse IV.3 IgG2b mAb (antibody)” showed a mAb concentration that blocked 250 nM M90+CD40L IC-induced platelet aggregation of 7 nM.
In the case of “effector-deficient humanized IV.3.1 IgG1 E269R mAb (antibody)”, the mAb concentration that blocked 250 nM HIT-like IC-induced platelet aggregation amounted to 40 nM, the mAb concentration that blocked 500 nM M90+CD40L IC-induced platelet aggregation was found to be 6 nM, the mAb concentration that blocked 1000 nM M90+M91+CD40L IC-induced platelet aggregation amounted to 25 nM and the mAb concentration that blocked APS-like IC-induced platelet aggregation came out at 33 nM. For the same substance, the mAb concentration that did not inhibit 500 nM M90+CD40L IC-induced platelet aggregation was 2 nM; the mAb concentration that inhibited 500 nM M90+CD40L IC-induced platelet aggregation turned out to be 3 nM; the platelet activation by the combination of hIV.3.1 (25 nM), hAT-10 (90 nM) and MDE-8 (75 nM), all IgG1 E269R came to 25 nM; the platelet aggregation by the combination of hAT-10 (2 nM), hIV.3.1 (150 nM) and MDE-8 (150 nM), all IgG1 E269R is 150 nM.
“native chimeric IV.3 human IgG1 mAb (antibody)”: the mAb concentration needed to block 500 nM M90+CD40L IC-induced platelet aggregation is < 5 nM.
